For 5 substances, IC50 and pIC50 results are on record in publication PMC4504005, “Structural Basis for Receptor Activity-Modifying Protein-Dependent Selective Peptide Recognition by a G Protein-Coupled Receptor” (Molecular cell, 2015).

Assay [1] has as its target MBP-RAMP2 ECD [L106R]-(GSA)3-CLR ECD-H6 tethered fusion protein (UniProt O60895). The assay can be described thus: AlphaScreen or HTRF; competition assay: purified tethered receptor ECD fusion protein with biotin-CGRP or biotin-AM (100 nM each in Figure 6), unlabelled competitor peptide varied; apparent affinities. For orientation: In Alpha technology, singlet oxygen from a donor bead excites a nearby acceptor bead.

In assay [2] the target is MBP-RAMP1 ECD-(GSA)3-CLR ECD-H6 tethered fusion protein (UniProt O60894). The assay is described as above.

Values joined by “and” are separate entries in the source; they are usually repeats but may differ in a detail not shown here. Identical values can stand only once.

On to AM(22–52)NH2 (peptide), for which, in assay [1], the IC50 (commonly the concentration needed to halve the response being measured) is 5000 to 15000 nM; the pIC50 – broadly, the IC50 on a negative log10 scale, so that one unit is a factor of ten – is 4.92 and 4.84.

For AM(37–52)NH2 (peptide), the pIC50 in assay [1] worked out at 5. On to CGRP(8–37)NH2 (peptide), for which, in assay [2], the IC50 came out at 2000 nM and the pIC50 turned out to be 5.01. As to “CGRP(27–37)NH2 [D31, P34, F35] (peptide)”, in assay [2], the IC50 worked out at 460 nM and the negative-log IC50 (pIC50) amounted to 6.79.

For CGRPmut [F37Y] (peptide), the pIC50 in assay [1] was 4.79; in assay [2], 6.24.
